The values that follow come from article PMC5216522, “Pyruvic oxime dioxygenase from heterotrophic nitrifier Alcaligenes faecalis is a nonheme Fe^(II)-dependent enzyme homologous to class II aldolase” (Scientific Reports, 2017).

The Km is the concentration of substrate that gives half-maximal velocity. As usually defined, the kcat is the number of substrate molecules converted per active site and unit of time at saturation.

Substrate in this data set: CC(=NO)C(=O)O
Description: nitrite production by diazo-coupling, Hanes-Woolf plot. Type of data set: biochemical, Alcaligenes faecalis. To be noted: Fe(II)-reconstituted enzyme, 10 mM Tris-HCl pH 8.0, 1 mM sodium ascorbate, 100 μM FeSO4, 37 °C, co-substrate O2, kcat apparent, per subunit.

B1: rPOD (recombinant pyruvic oxime dioxygenase) (Alcaligenes faecalis) (protein)
chain: MDTPLRDKSYFDERATKEMATHLQQVQRDTRETMAFACRILAMTEQEAGLAGQISVRSERPGAYWTLRFGLGFDEATPEDFIEVDRDLNTLSGEGMANPATRFHLWVYEARPDVNSIIHTHSPWATVLATARQPLVISQMDMTPLHNDCAFLGEWPGVPIADQEGVIISKALGDKRAIILAHHGYLTAGKSCQEATYLSVYLERAARLQVRAQAAFGPLTPVDDTLAAEAHDYLLKPSIVNATFDYWSRQTQGIAPLTKTR
notes: full length, 261 residues, 29,106 Da; pET21a(+) NdeI/XhoI with own stop codon, untagged; expressed in E. coli BL21(DE3)-CodonPlus; homotetramer (135 kDa by gel filtration); Fe(II)-reconstituted
For the protein B1, the Km turned out to be 470 µM and the kcat was 4.69 s⁻¹.
